As usually defined, the Kd is a measure of binding affinity in units of concentration.

The text below walks through data of article PMC8809517, “Cofactor-independent RNA editing by a synthetic S-type PPR protein”.

Assay in all cases: high-throughput RNA pulldown from lysate on Ni-NTA beads; HRP: 50 mM Tris pH 8, 150 mM NaCl, 1 mM beta-mercaptoethanol, 50 ug/ml BSA, 3 ug/ml yeast RNA, 0.5% heparin; ITC and FP: Tris pH 8, 200 mM KCl, 5% glycerol; MST: 50 mM Tris pH 8, 200 mM NaCl, 1 mM DTT, BSA, heparin, 0.05% Tween 20
Conditions in all cases: tags: N-terminal His-eGFP

Data set [1] deals with T1, GFP-9S library array, motif 4 ND N98F;D124L (synthetic construct, N98F;D124L).
T1 chain: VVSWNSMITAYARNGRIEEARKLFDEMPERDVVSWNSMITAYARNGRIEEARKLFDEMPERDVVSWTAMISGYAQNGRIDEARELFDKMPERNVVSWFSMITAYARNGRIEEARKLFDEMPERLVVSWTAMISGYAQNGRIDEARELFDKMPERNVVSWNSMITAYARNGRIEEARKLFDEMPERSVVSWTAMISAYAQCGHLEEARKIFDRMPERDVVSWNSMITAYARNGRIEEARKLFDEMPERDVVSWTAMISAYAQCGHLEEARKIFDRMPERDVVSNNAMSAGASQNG

Data set [2] deals with T2, GFP-9S library array, motif 4 ND N98K;D124Q (synthetic construct, N98K;D124Q).
T2 chain: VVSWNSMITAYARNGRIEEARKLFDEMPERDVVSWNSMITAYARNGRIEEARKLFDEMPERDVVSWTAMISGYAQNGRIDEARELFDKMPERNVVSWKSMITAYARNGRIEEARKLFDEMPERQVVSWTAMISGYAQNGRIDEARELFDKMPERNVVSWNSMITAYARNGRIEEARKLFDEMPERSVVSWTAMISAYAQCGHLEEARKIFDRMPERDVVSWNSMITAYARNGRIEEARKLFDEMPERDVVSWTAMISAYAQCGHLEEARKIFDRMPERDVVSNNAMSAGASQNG

Data set [3] concerns the target T3, GFP-9S library array, motif 4 ND N98P;D124V (synthetic construct, N98P;D124V).
T3 chain: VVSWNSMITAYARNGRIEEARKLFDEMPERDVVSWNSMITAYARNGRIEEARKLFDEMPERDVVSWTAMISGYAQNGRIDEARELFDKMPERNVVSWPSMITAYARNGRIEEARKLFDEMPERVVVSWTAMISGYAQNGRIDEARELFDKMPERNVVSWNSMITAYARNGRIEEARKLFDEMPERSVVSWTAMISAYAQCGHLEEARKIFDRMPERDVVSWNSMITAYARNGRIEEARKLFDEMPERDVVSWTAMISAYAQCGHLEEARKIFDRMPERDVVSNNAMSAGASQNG

Data set [4] concerns the target T4, GFP-9S library array, motif 4 ND N98T;D124F (synthetic construct, N98T;D124F).
T4 chain: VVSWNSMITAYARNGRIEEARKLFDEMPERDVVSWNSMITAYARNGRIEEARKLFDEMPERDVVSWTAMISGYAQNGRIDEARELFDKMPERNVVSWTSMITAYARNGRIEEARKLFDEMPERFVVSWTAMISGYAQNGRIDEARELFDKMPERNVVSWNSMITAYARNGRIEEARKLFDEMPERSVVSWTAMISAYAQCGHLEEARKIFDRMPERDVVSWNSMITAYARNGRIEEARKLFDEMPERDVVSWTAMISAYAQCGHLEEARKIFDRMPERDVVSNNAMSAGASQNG

The target of data set [5] is T5, GFP-9S library array, motif 4 ND N98K;D124T (synthetic construct, N98K;D124T).
T5 chain: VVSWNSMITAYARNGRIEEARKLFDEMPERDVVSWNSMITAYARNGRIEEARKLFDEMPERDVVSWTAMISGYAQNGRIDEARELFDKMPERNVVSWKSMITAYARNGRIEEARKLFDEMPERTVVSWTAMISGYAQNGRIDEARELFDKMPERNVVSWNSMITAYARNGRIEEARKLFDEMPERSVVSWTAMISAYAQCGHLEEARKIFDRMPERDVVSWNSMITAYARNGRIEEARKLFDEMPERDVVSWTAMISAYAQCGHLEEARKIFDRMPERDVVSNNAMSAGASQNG

Regarding AUUAAACGUGA (ssRNA) [IR-rpoA-A], the Kd in data set [1] (label: 5' IRDye 800CW) was determined as 232 nM; in data set [2] (label: 5' IRDye 800CW), 110 nM; in data set [3] (label: 5' IRDye 800CW), 407 nM; in data set [4] (label: 5' IRDye 800CW), 173 nM; in data set [5] (label: 5' IRDye 800CW), 211 nM.
Turning to AUUACACGUGA (ssRNA) [Cy5-rpoA], the Kd worked out at 76.3 nM in data set [1] (label: 5' Cy5); 71.3 nM in data set [2] (label: 5' Cy5); 121 nM in data set [3] (label: 5' Cy5); 241 nM in data set [4] (label: 5' Cy5); 76.8 nM in data set [5] (label: 5' Cy5).
For AUUAUACGUGA (ssRNA) [IR-rpoA-U], the Kd in data set [1] (label: 5' IRDye 800CW) amounted to 166 nM; in data set [2] (label: 5' IRDye 800CW), 63.7 nM; in data set [3] (label: 5' IRDye 800CW), 291 nM; in data set [4] (label: 5' IRDye 800CW), 637 nM; in data set [5] (label: 5' IRDye 800CW) it was 212 nM.
AUUAGACGUGA (ssRNA) [Cy5-rpoA-G]: the Kd in data set [1] (label: 5' Cy5) turned out to be 90.2 nM; in data set [2] (label: 5' Cy5), 81.3 nM; in data set [3] (label: 5' Cy5) it was 150 nM; in data set [4] (label: 5' Cy5) it was 160 nM; in data set [5] (label: 5' Cy5), 83.6 nM.
